In article PMC7391724 (Scientific Reports, 2020):

System: KB tumor xenografts
Experiment: KB tumor xenograft in nu/nu rats
Type: in vivo
Conditions: EC2629 0.15 µmol/kg iv SIW x 2 weeks
Experimental: Four- to eight-week-old female nu/nu mice and rats (Harlan Sprague Dawley, Inc.), were maintained on a standard 12-h light–dark cycle and fed ad libitum with a low-folate chow (Harlan Teklad diet #TD.01013, Madison, WI) for the duration of dosing and 1 week post dosing schedule. Mice and rats were then switched to Teklad Global 18% Rodent diet (Harlan Teklad diet #2018S) during the monitoring phase of the study. Parental KB, KB-CR2000 or KB-PR10 cells (1 × 10^6/100 µL per nu/nu mouse and 5 × 10^6/200 µL per nu/nu rat) were injected into the subcutis of the dorsal medial area. Mice were divided into groups of 5 and rats in groups of 3–4, and freshly prepared test articles were injected through the lateral tail vein under sterile conditions in a volume of 200 μL/20 g of PBS. […]
Animals in the control groups received no treatment. […] Tumors were measured in two perpendicular directions using Vernier calipers, and their volumes were calculated as V = 0.5 × L × W^2, where L = measurement of longest axis in mm and W = measurement of axis perpendicular to L in mm[16]. As a general measure of gross toxicity, changes in body weights were determined on the same schedule as tumor volume measurements. Survival of animals was monitored daily. […]

SMILES: C=C1C[C@H]2C=Nc3cc(OCCCCCOc4cc(N)c(C(=O)N5CC(=C)C[C@H]5C5OCCN5C(=O)OCC(C)(C)SSCCC(=O)NCCNC(=O)CCOCCOCCOCCOCCNC(=O)CCN5C(=O)CC(SC[C@H](NC(=O)[C@H](CC(=O)O)NC(=O)[C@H](CC(=O)O)NC(=O)[C@H](CCCNC(=N)N)NC(=O)[C@H](CC(=O)O)NC(=O)CC[C@H](NC(=O)c6ccc(NCc7cnc8nc(N)[nH]c(=O)c8n7)cc6)C(=O)O)C(=O)O)C5=O)cc4OC)c(OC)cc3C(=O)N2C1 (stereo partly shown) [EC2629]
- body weight change: did not lose any significant weight
